Assay: soluble on expression in E. coli; label from the status in PepcDB or PDB records

Soluble on expression in E. coli, not soluble:
MGSDKIHHHHHHMTTPSETSPSRMNSTQAWVSYLSKVELPVLANTLRQINELTDSRNSTVNELANVILNDAQLTSQVLRLSNTVFYNQTRTQVSTVSRAITLIGFDAVKSMAISSLIVDSLLKRNDRPHLLRCLARAIHAAVQARCLMPKRTEHALEEVFIGALLMNIGELAFWSCETEQASELEERLRLEEPPVEAQKAVLHTTFTEITRGLVDAWSLGPFIKEVVAPGKANSMASSLVRNSVEMARVSENGWSGAEMDKVLEKLSDDIGETPAAIRDQLKVNAQEASKVAVSLGIPQVTALLPGNQESVPDAPAMDSDLQLQILRELTQTLAEKPDINEVCQLVIEGIHRAIGMQRVALLMTDRSGELLVPRKVGGRGTEEWREHFVIKKDGTGPLGPLLPHGTCAVYEPRKQTEGVPYDRWLGKVPALAGSLKAKGRLVGLFYADNAAAGYVPSEQQLAAFGHFIQNAQLCLTLMSARG, MLELAILGLLIESPMHGYELRKRLTGLLGAFRAFSYGSLYPALRRMQADGLIAENAAPAGTPVRRARRVYQLTDKGRRRFGELVADTGPHNYTDDGFGVHLAFFNRTPAEARMRILEGRRRQVEERREGLREAVARASSSFDRYTRQLHQLGLESSEREVKWLNELIAAERAAPNPAEQT, MSLGTLPPELQNTCVARGKLPLLLDLDNTLLHAQAASATGCDVRLQDWIDPYGEPELYRFELPCNRKTYYMKLRPHLRTFLKKLEPFYEMSVYTNATQEYADIVIAILDGNRQLFQDRIVARDSGFRGEASENKAVRRLYEGMDKRCIVAFDDRQNIWTDLPLTHVVKAQHYDFFDSHKTELNAYYPPLSNGIEGMTAPDVLGNRQNEDEGHHHHHH, MGSDKIHHHHHHMIASKSKQLVYNGRFTTQKTTGVQRVARELIAALIKFQPQDPVTVLVPPRPGVAVSGAKTVEVGFYKGVVWEQLILPLFARRGRIVNLGNSASIFLGNQIIYMHDAAVFDTPAHFSRPFRVWYRIMFWILARTSVCVLTNSRFSRDRLAHHCGVSAEKIRVVPLGADHLDALEPDTSVLDKHALTPDRFVLAVSSMNPTKNFGRLIAAFRQIGDPSVDLVIVGMQNTTVFGKHDPVGAPEPNIKYVGYISDEQLKALYQNAACFLYPSIYEGFGIPPLEAMRYGCPALVGKSAALPEVCADAALYCDPYSQDDIARKLRSLLDSPELRAELKRKGIAHAEQYRWSRSAEMMKAIFETL, MSLEFLEQEGQEVLTKEIKAGFCEITPSSITEQTTKPQLDETQLVDEYVHTKELETTPIPISFATKEVLFEEVFNTPSTQQVDESVLVNEYIELTQQIKNASEQVSSNHTHKFSVATEPAATKAVSETMLLDDYVEMVEQDVQAQTALPQAALDPTVSLTFSSPIDSNAILVYPEMKVPHVFDTVAPTTTTVPLDQTQLLDELVEVPVLTHTVTPAPLQPKAAPTNFALDQTQLVDELVTVPLTHTLVNESAPVTPVVVTSPAAEHSFSITTVDKANLTNALSQTVVIKPAEDSAHQSAVLDKEIATKQAQLQQLQAQIELRQAQLETPPVTYMGVEEYKLLPVQDVVPVQPTVSFEMTLLQEQLDKALKHNAALQIQLEEQLAKPLQYDQSPVLQERIELLQNQNTNLTQELNELQQKLFKSQNNSLLLARLEEENRTLKQHLQNNLPEANQLNFVLEKQLEQLQQDKHSLTLQIEQYKFDSKKHQEQLALIPSLRSEINSLETEVISLKQTNQRLSLIERENNFLKTEIKQLRETKLNDENTKYRNLLKQYELMRADSDAKLKELEHEQHLAHQHHQEQLAQLQRHNEALVKELDQVKATNFELGLAAQGFEQQKVVLEQKNSSLLASLQAAEENVQALGITNSELQNQLNVLEFTHKEKTAFDSKTLTLTKQQLEQTQFDLSLTQEQLATFKQQNQSLTDKLMASETQLNHLQQSDENLTQLQTQHELLQESYNKLQDEANHTQQQFHQAQNELDAAHQQLALFKQNNEELTDKCSNIQNELHDLNRVKTNWENLNTEHNLLQDKYAQQKEQMQHEHSNLAQIQAEHELLQESYNKVKAELNEIQITNLNEANAQYQDLLSAYELLQSNHNKLKQELQVLNQVNLEKQQLAQKLHNTHQSLSQTHAELTQLQAAYNNLQATPPVSDELLEQFNQVQLEKQRLLQQNLALVHELQYFNELNSSQTHEIKTKQDETVKEVIIVEKEIPVPPEKKPRLKKRDIVIENKEDALGKLSKKERIQAYAERLAKINGKQEGHHHHHH

From the DeepSol protein solubility set
